Measurements published in article PMC3005839.
Several values for one entry are separate records, joined by “and”; a condition that tells them apart may be missing. Equal entries are not always repeated.

What was measured:
[1] = target: Nucleosome core particle NCP-601 (Xenopus laevis); test: native gel or EMSA; near physiological ionic strength: 1X TBE (89 mM Tris-HCl, 89 mM boric acid, 1.0 mM EDTA, pH 8.3); preassembled NCP or array incubated with HMGN about 30 min at room temperature, electrophoresis at 4°C; 0.5 μM nucleosome core sites
[2] = target: Nucleosome core particle NCP147 (Xenopus laevis); test: as above
[3] = target: Nucleosome core particle NCP-601 (Xenopus laevis); test: native gel or EMSA; low ionic strength: 0.25X TBE (0.25X TAE for 12-array); preassembled NCP or array incubated with HMGN or NBD peptide about 30 min at room temperature, electrophoresis at 4°C; 0.5 μM nucleosome core sites; NCP on 6% polyacrylamide, array on 1% agarose/1.3% polyacrylamide
[4] = target: Centered nucleosome core particle NCP146b (Xenopus laevis); test: as above
[5] = target: Nucleosome core particle NCP147 (Xenopus laevis); test: as above

stoichiometry N (HMGN : nucleosome core particle) [1] | stoichiometry N (HMGN : nucleosome core particle) [2] | stoichiometry N (HMGN : nucleosome) [3] | stoichiometry N (HMGN : nucleosome) [4] | stoichiometry N (HMGN : nucleosome) [5] | Substance
2 | 2 | 2 and 1 | 1 and 2 | 1 and 2 | Xenopus laevis HMGN2 (natural protein)
2 | 2 | 1 and 2 | 1 and 2 | 1 and 2 | Xenopus laevis HMGN1 (natural protein)
